Biological target: P22 coat protein (CP) monomers (bacteriophage P22, UniProt P26747 1-430)
Assay: SEC

Sequence of P22 coat protein (CP) monomers (P26747 whole entry): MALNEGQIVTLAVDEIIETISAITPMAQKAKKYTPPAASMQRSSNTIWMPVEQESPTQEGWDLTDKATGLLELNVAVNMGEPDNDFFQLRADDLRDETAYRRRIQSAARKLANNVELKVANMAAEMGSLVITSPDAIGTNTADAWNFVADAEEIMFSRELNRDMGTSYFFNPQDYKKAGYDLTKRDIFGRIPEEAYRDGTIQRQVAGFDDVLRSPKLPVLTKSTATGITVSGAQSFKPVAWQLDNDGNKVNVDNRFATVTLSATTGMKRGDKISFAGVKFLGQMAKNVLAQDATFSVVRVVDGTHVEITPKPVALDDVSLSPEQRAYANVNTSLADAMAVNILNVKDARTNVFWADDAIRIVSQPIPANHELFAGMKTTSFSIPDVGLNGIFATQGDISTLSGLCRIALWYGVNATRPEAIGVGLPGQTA

B1: P22 scaffolding protein (SP) (natural protein, bacteriophage P22, UniProt P26748 1-303, looked up)
chain: MEPTTEIQATEDLTLSGDHAAASADSLVVDNANDNAGQEEGFEIVLKDDETAPKQDPAKNAEFARRRIERKRQRELEQQMEAVKRGELPESLRVNPDLPPQPDINAYLSEEGLAKYDYDNSRALAAFNAANTEWLMKAQDARSNAVAEQGRKTQEFTQQSAQYVEAARKHYDAAEKLNIPDYQEKEDAFMQLVPPAVGADIMRLFPEKSAALMYHLGANPEKARQLLAMDGQSALIELTRLSERLTLKPRGKQISSAPPADQPITGDVSAANKDAIRKQMDAAASKGDVETYRKLKAKLKGIR
binding result: binds

Source: publication PMC5529062 (Science Advances, 2017)
